According to the supplement of paper PMC10724198:
± gives the standard deviation of the averaged measurements.

test system: Saccharomyces cerevisiae; assay: protein stability index of tFT-peptide fusion (C-terminal peptide) (PSI (0-1 scale)); higher = more stable (slower turnover); conditions: genetic background: wild type; temperature: 30 C
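Further: PSI is a weighted mean of sequencing reads over stability bins, variants kept only with over 10 reads, mCherry proximal and sfGFP distal, peptide attached via GGGS linker.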

Sequence	protein stability index
LSLGGSPSKRRP	0.648 ± 0.029
LSLPPHASPTPS	0.735 ± 0.055
LSLTRIFQLTRW	0.721 ± 0.023
LSPAPPHRYSPY	0.7 ± 0.043
LSPASPGPFLSC	0.72 ± 0.022
LSPCVGGLFGVV	0.693 ± 0.017
LSPFCIRSLRPD	0.647 ± 0.069
LSPPAPPLLFSP	0.691 ± 0.035
LSPPPHTSVPRL	0.659 ± 0.12
LSPPYCPGALTL	0.646 ± 0.0081
LSPVSPRPLLPV	0.773 ± 0.12
LSPYFWITEDAS	0.7028 ± 0.0051
LSRPCPFYPPPR	0.701 ± 0.037
LSSFFLLPCLSS	0.576 ± 0.021
LSSFHCIVTVKD	0.652 ± 0.028
LSSFPLPFPPPL	0.659 ± 0.013
LSSPPSPRAFLP	0.723 ± 0.065
LSSSVAPLIPPP	0.767 ± 0.031
LSSVFLGICIMS	0.543 ± 0.11
LSSWPFLPLVRI	0.593 ± 0.02
LSTPPLPRPYPP	0.654 ± 0.038
LSTPSLFTPFRA	0.715 ± 0.024
LSVMLEGLFGLL	0.662 ± 0.018

Sequence	protein stability index
LSVWPHSVPSFV	0.659 ± 0.036
LSYQTGTTRTRK	0.728 ± 0.056
LTFSPPERLSFH	0.737 ± 0.12
LTGGNPLTQDGD	0.689 ± 0.019
LTHLADVRSVLS	0.708 ± 0.043
LTHLLTSHTNII	0.746 ± 0.081
LTNGQRSLCLCS	0.6537 ± 0.0048
LTPNSLCSFLSR	0.702 ± 0.013
LTPSLPLPPSET	0.654 ± 0.047
LTRKTPQKRAPQ	0.704 ± 0.013
LTRLETSNITAI	0.679 ± 0.041
LTSVQFNKWTIE	0.714 ± 0.047
LTTMSPGLLRRP	0.639 ± 0.065
LTTRTQTDDRKR	0.682 ± 0.0077
LTVRVTSQPFDL	0.658 ± 0.015
LVCTLLGAASAP	0.708 ± 0.033
LVFAAGCVGGVR	0.633 ± 0.021
LVGGGGGVGSLV	0.628 ± 0.042
LVGGGVGVGSLV	0.66 ± 0.011
LVGRAITTLPPV	0.66 ± 0.037
LVGSRGCGKIVW	0.6 ± 0.026
LVIWSFYSEGIV	0.52 ± 0.017
LVLFFPMLRIRI	0.515 ± 0.041

Sequence	protein stability index
LVLGFDVTPGTF	0.728 ± 0.017
LVLHWPSPREAL	0.713 ± 0.071
LVLTPPLLSLYP	0.683 ± 0.0083
LVPLFVLPYGHP	0.768 ± 0.073
LVQCSAISARRF	0.735 ± 0.026
LVRFTDPIPQQA	0.615 ± 0.026
LVRGFVDKYVIS	0.652 ± 0.01
LVRLRRSLRLFL	0.539 ± 0.037
LVRPRFSPPPTP	0.6882 ± 0.0057
LVRVLHRSHASA	0.685 ± 0.031
LVSPPSPPLPPP	0.728 ± 0.12
LVVSHDSSLMMR	0.7363 ± 0.0045
LVVTTLQSVVLG	0.559 ± 0.085
LVVVRTGPPRWY	0.669 ± 0.0073
LVWLGCGLGGLC	0.745 ± 0.054
LWCCVFGLPSRG	0.696 ± 0.072
LWCDTRIDMSRH	0.737 ± 0.038
LWCFVVGEVNGV	0.6209 ± 0.0034
LWFCGLWPRVSG	0.6384 ± 0.00068
LWGPGAVWGRGR	0.699 ± 0.049
LWGPGGVWGRGR	0.697 ± 0.05
LWIVLFRKCELP	0.592 ± 0.018
LWKVVAPRDESP	0.67 ± 0.023

Sequence	protein stability index
LWPLPSASVILL	0.515 ± 0.12
LWPYSRYSFSPP	0.726 ± 0.02
LWSICWNRVFPF	0.6973 ± 0.0017
LWVGSGGARCVV	0.624 ± 0.03
LYGLFRIADVRR	0.652 ± 0.15
LYGSIPFGCRIL	0.94 ± 0.018
LYPLTPWYVVPP	0.715 ± 0.11
LYSFSIPPSLGS	0.735 ± 0.085
LYSPPPPPIPSP	0.7046 ± 0.0067
LYWSGFCPVFWG	0.7164 ± 0.0027
MANYIVEGGEPY	0.723 ± 0.025
MCVGGGCGRGGA	0.719 ± 0.14
MCVGSLMHKLRW	0.6988 ± 0.0043
MDDIAAYTGSCT	0.661 ± 0.032
MDTYIQKKKYIK	0.69 ± 0.0099
MENEDYIVRKKK	0.73 ± 0.054
MFGTVVFGAHRR	0.749 ± 0.015
MFVTQTGNRCKA	0.668 ± 0.018
MGFARDVYGSVC	0.702 ± 0.022
MGGTGRGGRREI	0.667 ± 0.04
MGGVGGLCGMWA	0.683 ± 0.036
MGPLHVMLQRAR	0.805 ± 0.16
MGVCLGPPTVWR	0.684 ± 0.043

Sequence	protein stability index
MIKDVYIDNDNV	0.694 ± 0.02
MLFWDVGLLVFN	0.579 ± 0.049
MLFWPPPSLRMP	0.701 ± 0.0083
MLPTPSPPRPPF	0.698 ± 0.021
MNFCLGVFVDLA	0.6857 ± 0.0037
MRECGLSEARGG	0.651 ± 0.021
MRKGNGGGPRRR	0.728 ± 0.019
MRLTLGSHMAYY	0.69 ± 0.082
MTRGRWAKKTAK	0.688 ± 0.038
MVKLGVGREEVV	0.655 ± 0.018
MVVEGLERWGRV	0.723 ± 0.045
MWPCRVRWLDHW	0.73 ± 0.034
MYASVGAIHPRL	0.738 ± 0.074
NACLRNPTTKGG	0.694 ± 0.086
NAFSHSASRVIS	0.682 ± 0.016
NAGNDVFSLDIC	0.683 ± 0.034
NCRGNLDFGPLV	0.727 ± 0.042
NDLRRAVSARYV	0.676 ± 0.032
NFGLYGAPFTLG	0.665 ± 0.041
NFNRKTNGVFRS	0.693 ± 0.059
NFRILIKKRGDE	0.643 ± 0.071
NGAGRGMVGGCG	0.666 ± 0.079
NGLACGSLTLLK	0.6738 ± 0.0019

Sequence	protein stability index
NGPDAKTIEVRQ	0.658 ± 0.048
NGRTYIDEESKI	0.745 ± 0.16
NGVLRPMATGAP	0.666 ± 0.039
NGYASLGGEPKR	0.7576 ± 0.0041
NIHKNKKKGLKE	0.686 ± 0.0088
NIKEKEIKRQVR	0.693 ± 0.051
NIKKLSHRTRRI	0.857 ± 0.2
NINKINKKCTRV	0.645 ± 0.055
NKEYSLIIKTHN	0.61529 ± 0.00011
NKISRDAVWNCR	0.657 ± 0.053
NKKDKKMNKDKR	0.6791 ± 0.0014
NKNKKKKEKKSR	0.725 ± 0.12
NKPRSYRVDKRQ	0.615 ± 0.015
NKRIRKIKKKCK	0.701 ± 0.065
NKRSNIKVSDQR	0.691 ± 0.03
NKTKKKRTEPQP	0.6616 ± 0.005
NKTNSKKSIFTV	0.703 ± 0.01
NLAVSFIVGGLW	0.747 ± 0.026
NLCPLPPPLLTS	0.675 ± 0.035
NLINPCRRPPVP	0.648 ± 0.088
NLRFTTSCNGPL	0.649 ± 0.018
NLRGPEYVKRTD	0.677 ± 0.021
NLSYPSCDPPAT	0.5836 ± 0.0032

Sequence	protein stability index
NNLSPLPGPSLI	0.713 ± 0.018
NNSLKTTMVATK	0.58 ± 0.065
NNYPHSEKCLKE	0.643 ± 0.009
NPPALPPFSPSP	0.708 ± 0.01
NPPCPYPPLRPR	0.595 ± 0.044
NPVYSFRAHRLG	0.5128 ± 0.0037
NRDIYQNWPKRK	0.831 ± 0.14
NRGLYNLYRMSR	0.645 ± 0.0027
NRHGRALPSLEA	0.644 ± 0.014
NRNKKTKKKVII	0.6697 ± 0.0062
NRRVSGPLCMQE	0.687 ± 0.054
NRSKNKKIIREI	0.6341 ± 0.0056
NRTRFLSLDTRP	0.719 ± 0.023
NSAPPPPHTPPP	0.699 ± 0.018
NSSADRSTNPTQ	0.649 ± 0.019
NSSLSLPFGPPP	0.69 ± 0.011
NSTPTTPPIPHQ	0.702 ± 0.091
NSTTNVKTQHTL	0.731 ± 0.023
NSTTQKKEQKQI	0.711 ± 0.043
NSVMSRGCGNRG	0.626 ± 0.044
NTNSTRSDNVFD	0.622 ± 0.011
NTPHSRSLRSNH	0.695 ± 0.017
